Data taken from article doi:10.1101/2025.06.03.657256 (bioRxiv, 2025).

B1: PLIN4-4mer[689:] (domain or fragment, human, UniProt Q96Q06 689-820, looked up)
chain: AKTVLTGTKDTVTTGLMGAVNVAKGTVQTSVDTTKTVLTGTKDTVCSGVTGAANVAKGAIQGGLDTTKSVLTGTKDAVSTGLTGAVKLAKGTVQTGMDTTKTVLTGTKDAVCSGVTGAANVAKGAVQMGVDT
B2: 4x1mer[260:] released from MBP-4x1mer[260:] by TEV protease (domain or fragment, human, UniProt Q96Q06 260-292, looked up)
chain: SKTVLTGTKDTVCSGVTGAMNVAKGTIQTGVDTSKTVLTGTKDTVCSGVTGAMNVAKGTIQTGVDTSKTVLTGTKDTVCSGVTGAMNVAKGTIQTGVDTSKTVLTGTKDTVCSGVTGAMNVAKGTIQTGVDT
B3: 1mer[260:] (peptide, UniProt Q96Q06 260-292, looked up)
peptide: SKTVLTGTKDTVCSGVTGAMNVAKGTIQTGVDT
B4: PLIN4-4mer[557:] (domain or fragment, human, UniProt Q96Q06 557-688, looked up)
chain: TKSVVIGTKDTMSTGLTGAANVAKGAVQTGVDTAKTVLTGTKDTVTTGLVGAVNVAKGTVQTGMDTTKTVLTGTKDTIYSGVTSAVNVAKGAVQTGLKTTQNIATGTKNTFGSGVTSAVNVAKGAAQTGVDT
B5: PLIN4-4mer[326:] (domain or fragment, human, UniProt Q96Q06 326-457, looked up)
chain: SKTVLTGTKDTVCSGVTGAMNVAKGTIQTGVDTTKTVLTGTKNTVCSGVTGAVNLAKEAIQGGLDTTKSMVMGTKDTMSTGLTGAANVAKGAMQTGLNTTQNIATGTKDTVCSGVTGAMNLARGTIQTGVDT
B6: PLIN4-20mer (domain or fragment, human, UniProt Q96Q06 260-919, looked up)
chain: SKTVLTGTKDTVCSGVTGAMNVAKGTIQTGVDTSKTVLTGTKDTVCSGVTGAMNVAKGTIQTGVDTSKTVLTGTKDTVCSGVTGAMNVAKGTIQTGVDTTKTVLTGTKNTVCSGVTGAVNLAKEAIQGGLDTTKSMVMGTKDTMSTGLTGAANVAKGAMQTGLNTTQNIATGTKDTVCSGVTGAMNLARGTIQTGVDTTKIVLTGTKDTVCSGVTGAANVAKGAVQGGLDTTKSVLTGTKDAVSTGLTGAVNVAKGTVQTGVDTTKTVLTGTKDTVCSGVTSAVNVAKGAVQGGLDTTKSVVIGTKDTMSTGLTGAANVAKGAVQTGVDTAKTVLTGTKDTVTTGLVGAVNVAKGTVQTGMDTTKTVLTGTKDTIYSGVTSAVNVAKGAVQTGLKTTQNIATGTKNTFGSGVTSAVNVAKGAAQTGVDTAKTVLTGTKDTVTTGLMGAVNVAKGTVQTSVDTTKTVLTGTKDTVCSGVTGAANVAKGAIQGGLDTTKSVLTGTKDAVSTGLTGAVKLAKGTVQTGMDTTKTVLTGTKDAVCSGVTGAANVAKGAVQMGVDTAKTVLTGTKDTVCSGVTGAANVAKGAVQTGLKTTQNIATGTKNTLGSGVTGAAKVAKGAVQGGLDTTKSVLTGTKDAVSTGLTGAVNLAKGTVQTGVDT

Molecular target: the molecule itself
Assay: thioflavin T

Binding result, binds:
B1
B2
B3
B4
B5

Molecular target: the molecule itself
Assay: negative-stain EM of fibrils

Binding result, binds:
B6
